Assay results: patent US20090169562A1 (CRUCELL HOLLAND B V, published 2009)

Key:
[1] = molecular target: T1, bovine serum albumin (BSA) (bovine, UniProt P02769 25-607); test: phage ELISA, BSA coated
T1 construct: Control antigen coated at 1% in PBS (pH 7.4); also called negative control antigen
Procedure: (§1) Selected single-chain phage antibodies that were obtained in the screens described above were validated in ELISA for specific enterococcal binding activity, i.e. binding to one or more enterococcal strains prepared as described supra. 2.5×10⁸ bacteria were coated overnight at 4° C. to Maxisorp™ ELISA plates in 50 μl 50 mM carbonate buffer, pH 9.6. As negative controls, the complex antigens 2% ELK and 1% BSA both in PBS (pH 7.4) were coated. Wells were washed in PBS containing 0.1% (v/v) Tween-20 and blocked with 300 μl PBS containing 2% ELK for at least 1 hour at room temperature. The selected single-chain phage antibodies were incubated for 15 minutes in an equal volume of PBS containing 2% ELK to obtain blocked phage antibodies. The plates were emptied and the blocked single-chain phage antibodies were added to the wells. Incubation was allowed to proceed for one hour at room temperature, the plates were washed in PBS containing 0.1% (v/v) Tween-20 and bound phage antibodies were detected using an anti-M13 antibody conjugated to peroxidase. Absorbance at 492 nm was measured using a spectrophotometer. As a control, the procedure was performed simultaneously without single-chain phage antibody and with a negative control single-chain phage antibody directed against West Nile virus envelope protein (SC04-374).

[2] = molecular target: T1, bovine serum albumin (BSA); test: phage ELISA, 1% BSA coated, anti-M13-HRP detection
Procedure: as §1

T1 sequence (P02769 25-607 limits assumed): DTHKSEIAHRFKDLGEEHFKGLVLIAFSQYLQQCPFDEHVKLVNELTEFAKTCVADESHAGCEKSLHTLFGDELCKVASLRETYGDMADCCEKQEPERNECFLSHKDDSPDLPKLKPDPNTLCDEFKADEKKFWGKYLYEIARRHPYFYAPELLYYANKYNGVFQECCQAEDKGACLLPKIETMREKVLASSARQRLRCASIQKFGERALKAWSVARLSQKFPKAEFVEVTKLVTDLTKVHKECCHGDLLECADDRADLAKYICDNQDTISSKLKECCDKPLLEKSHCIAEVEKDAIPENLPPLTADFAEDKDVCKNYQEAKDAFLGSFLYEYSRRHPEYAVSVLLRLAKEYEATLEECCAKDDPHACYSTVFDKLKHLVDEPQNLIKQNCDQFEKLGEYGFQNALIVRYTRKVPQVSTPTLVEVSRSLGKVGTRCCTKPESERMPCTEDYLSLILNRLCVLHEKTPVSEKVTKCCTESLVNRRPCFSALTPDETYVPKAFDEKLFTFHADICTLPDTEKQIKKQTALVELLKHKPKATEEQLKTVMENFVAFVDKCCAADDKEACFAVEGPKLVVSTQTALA

Row | Binder | binding result [1] | OD492 nm [2] [OD492 nm]
1 | SC06-050 (scFv, Vl 143-249); also called single-chain phage antibody SC06-050) scFv: EVQLVESGPEVKKPGASVKVSCEASGYNLDNYGITWVRQAPGQGLEWLGWISAYNAKTEYGQRLQGRVTMTTDTATSTAYLELRSLRSDDTAVYYCARVLGYRGGWYDEGDAFDVWGQGTMVTVSSGTGGSGGTGSGTGGSTDIQLTQSPSFLSASVGDRVTITCRASQGIRSHLAWYQQKAGKAPKLLIYAASTLQSGVPSRFSGSGSGTEFTLTISSLQPDDFAAYYCQQLNTYPITFGQGTRLEIK | no binding | 0.043
2 | SC06-071 (scFv, Vl 139-248); also called single-chain phage antibody SC06-071) scFv: EVQLVESGGGVVQPGRSLRLSCAASGFTFSSYGMHWVRQAPGKGLEWVAMIWSDGSNKYYADSVKGRFTISRDNSKNTLYLQMNSLRVEDTAVYYCASNYGSGSYWGGFDYWGQGTLVTVSSGTGGSGGTGSGTGGSTQSALTQPASVSGSPGQSITISCTGTSSDVGGYNLVSWYQQHPGKAPKLMIYEGSKRPSGVSNRFFGSKSGDTASLTISGLQAEDEADYYCSSYTTSSTHVFGTGTKVTVL | no binding | 0.043
3 | SC06-077 (scFv, Vl 136-248); also called single-chain phage antibody SC06-077) scFv: QVQLVQSGAEVKKPGSSVKVSCKASGGTFSSYAISWVRQAPGQGLEWMGGIIPIFGTANYAQKFQGRVTITADESTSTAYMELSSLRSEDTAVYYCAREGGVGPAFDIWGQGTMVTVSSGTGGSGGTGSGTGGSTDIQMTQSPDSLAVSLGERATINCKSSQSVLHNSNNKNYLAWYQQKPGQPPKLLIYWASTRESGVPDRFSGSGSGTDFTLTISSLQAEDVAVYYCQQYYGSPYTFGQGTKLEIK | no binding | 0.044
4 | SC06-078 (scFv, Vl 136-245); also called single-chain phage antibody SC06-078) scFv: EVQLVESGAEVKKPGSSVKVSCKASGGTFSSYAISWVRQAPGQGLEWMGGIIPIFGTANYAQKFQGKVTITADESTSTAYMELSSLRSEDTAVYYCARLSPRYYGMDVWGQGTTVTVSSGTGGSGGTGSGTGGSTQSALTQPRSVSGSPGQSVTISCTGTSSDVGGYNYVSWYQQHPGKAPKLMIYGGSERPSGVSNRFSGSKSGNTASLTISGVQAEDEADYYCSSYTSSGTLLFGGGTQLTVL | no binding | 0.073
5 | SC06-079 (scFv, Vl 133-242); also called single-chain phage antibody SC06-079) scFv: EVQLVESGGGLVQPGGSLRLSCAASGFTFSSYAMSWVRQAPGKGLEWVSAISGTGGSAYYADSVKGRFTISRDNSKNTVYLQMNSLRAEDTAVYYCAKGHSSGTNWGQGTLVTVSSGTGGSGGTGSGTGGSTSYVLTQPPSASGTPGQRVTISCSGSSSNIGSNFVYWYQQLPGTAPKLLIYRNNQRPSGVPDRFSGSKSGTSASLAISGLRSEDEADYYCAAWDDSLSGVLFGGGTQLTVL | no binding | 0.048
6 | SC06-087 (scFv, Vl 139-249); also called single-chain phage antibody SC06-087) scFv: EVQLVESGGGLVKPGGSLRLSCAASGFTFSSNSMNWVRQAPGKGLEWVSFISSSSTYIYYADSVKGRFTISRDNAKNSLYLQMNSLRAEDTAVYYCARESAAGISYDAFDIWGQGTMVTVSSGTGGSGGTGSGTGGSTQSALTQPASVSGSPGQSITISCTGTSSDVGGYKYVSWYQQHPGKAPKLMIYEVSNRPSGVSNRFSGSKSGSTASLTISGLQAEDEADYYCSSYTSSSTLGVFGTGTKVTVL | no binding | 0.044
7 | SC06-089 (scFv, Vl 140-247); also called single-chain phage antibody SC06-089) scFv: EVQLVETGGGLVQPGGSLRLSCAASGFTFSSYSMNWVRQAPGKGLEWVSFISSSSSTIYYADSVKGRFTIARDNAKNSLYLQMNSLRDEDTAVYYCARPVGTGISLFHAFDIWGQGTMVTVSSGTGGSGGTGSGTGGSTQSVLTQPPSVSVAPGQTARITCGGNNIGSKYVHWYQQKPGQAPVLVVYDDSDRPSGIPERFSGSNSGNTATLTISRVEAGDEADFYCQVWDGSSDPVVFGGGTKLTVL | no binding | 0.042
8 | SC06-092 (scFv, Vl 138-248); also called single-chain phage antibody SC06-092) scFv: EVQLVESGGGLVQPGRSLRLSCTGSGFTFGDYAMSWFRQAPGKGLEWVGFIRNKAYGGTAEYAASVKDRFIISRDDSKSIAYLQMNSLKTEDTAVYYCVRREYDTGWLDYWGQGTLVTVSSGTGGSGGTGSGTGGSTQSALTQPPSASGSPGQSVTISCTGTSSDVGGYNYVSWYQRHPGKAPKLMIYDVTDRPSGVSNRFSGSKSGNTASLTISGLQAEDEADYYCSSYTSSSTSAVFGGGTKLTVL | no binding | 0.047
9 | SC06-191 (scFv, Vl 137-243); also called single-chain phage antibody SC06-191) scFv: EVQLVESGGGVVQPGRSLRLSCVASEFTFSNYGMHWVRQAPGKGLEWVAVIWYDGSNEDYADSVKGRFTISRDNSKNTVYLHMNSLRAEDTAVYFCTRGQYSSTWFLDYWGQGTLVTVSSGTGGSGGTGSGTGGSTDIQLTQSPSTLSASVGDRVTITCRASQSISSWLAWYQQKPGKAPKLLIYKASSLETGVPSRFSGSGSGTDFTLTISSLQPEDFATYYCQQANSFPLTFGGGTKVDIK | no binding | 0.044
10 | SC05-157 (scFv, Vl 138-247); also called single-chain phage antibody SC05-157) scFv: EVQLVESGAEVKKPGESLKISCKGSGYSFTNYWIGWVRQMPGKGLEWMGIVYPGDSDTRYSPSFQGQVTISADKSISTAYLQWSSLKASDTAVYYCARRMAVAGSDAFDIWGQGTMVTVSSGTGGSGGTGSGTGGSTQAVLTQPSSASGTPGQTVTISCSGSTSNIGSHNVNWYQHLPGTAPKLLIYINNKRPSGVPDRFSGSKSGSSASLAISGLQSEDEADYYCAAWDDSLRRPVFGGGTQLTVL | no binding | 0.058
11 | SC06-195 (scFv, V domains shown) VH: EVQLVESGGGVVQPGRSLRLSCAASGFTFSSYGMHWVRQAPGKGLEWVAVIWYDGSNKYYADSVKGRFTISRDNSQNTLYLQMNSLRAEDTAVYYCTSYAIAATPGQGTLVTVSS VL: not shown |  | 0.046
12 | SC06-198 (scFv, Vl 133-243); also called single-chain phage antibody SC06-198) scFv: QLQLQESGPGLVKPSETLSLTCAVSGYSITSGYYWGWVRQPPGKGLEWIGSIYHTGSTYYNPSLKSRVTISVDTSKNQFSLKLNSLTAADTAVYFCASQSPAFDFWGQGTMVTVSSGTGGSGGTGSGTGGSTQSVLTQPPSVSGAPGQRVTISCTGSSSNIGTGYDVHWYQQLPGTAPKLLIYGNNNRPSGVPDRFSGSKSGTSASLAITGLQAEDEADYYCATWDDSLNGWVFGGGTKLTVP | no binding | 0.049
13 | SC06-241 (scFv, Vl 135-241); also called single-chain phage antibody SC06-241) scFv: EVQLVESGGGLVQPGRSLRLSCAASGFTFRSYAMYWVRQAPGKGLEWLALISHDASKMFYADSVKGRFTISRDNSKNTLSLQMNSLTIEDTAVYYCVRERTGYYGAYWGQGTLVTVSSGTGGSGGTGSGTGGSTDIQMTQSPSSLSASVGDRVTLTCRASQGIGTWLAWYQQKPGKAPKLLIYSASSLQSGVPSRFSGSGSGTDFTLSISNLQPEDFATYYCQQANSFPITFGQGTRLEIK | no binding | 0.052
14 | SC06-242 (scFv, Vl 132-237); also called single-chain phage antibody SC06-242) scFv: EVQLVESGPGLVKPSETLSLTCTVSGGSISSYYWSWIRQPPGKGLEWIGYIYYTGTTNYNPSLNSRVTISADTSKNQFSLKLSSVTAADTAVYYCARGGQTAGVWGKGTTVTVSSGTGGSGGTGSGTGGSTQSVLTQPPSVSVAPGQTARITCGGYNIGRKSVHWYQQKPGLAPVLVVYDNSDRPSGIPARFSGSNSGNTATLTISGTQAMDEADYYCQAWDRGTAVFGTGTKVTVL | no binding | 0.043
15 | SC06-246 (scFv, Vl 138-245); also called single-chain phage antibody SC06-246) scFv: EVQLVESGGGLIQPGGSLRLSCAASGFTVSSDFMTWVRQAPGRGLEWVSLIYSGGKTNYADSVKGRFTISRDNSRNTLYLQMNSLRAEDTAVYYCARSVCSTISCSKLDDWGQGTLVTVSSGTGGSGGTGSGTGGSTQAVLTQPSSVSVAPGQTARITCGGNNIGRKSVHWYQQKPGLAPVLVVNDNSDRPSGIPARFSGSNSGNTATLTISRVEAGDEADYYCHVWGSSRDHYVFGTGTKVTVL | no binding | 0.042
16 | SC06-252 (scFv, Vl 132-241); also called single-chain phage antibody SC06-252) scFv: EVQLVETGGGLVQPGGSLRLSCAASGLTFSSYAMSWVRQAPGKGLEWVSALSGSTTFYADSVKGRFTISRDNAKNTLYLQMNSLRAEDTAVYYCARGNYYGMDVWGQGTTVTVSSGTGGSGGTGSGTGGSTSYVLTQPPSASGTPGQRVTISCSGSSSNIGKFYVYWYQQFPGAAPKLLIYSNNQRPSGVPDRFSGSKSGTSASLAISGLQSEDEADYYCAAWDGSLNGYVFGTGTKVTVL | no binding | 0.044
17 | SC06-409 (scFv, Vl 139-249); also called single-chain phage antibody SC06-409) scFv: EVQLVQSGAEVKKPGESLKISCKGSGYSFTNYWIGWVRQMPGKGLEWMGIIYPGDSDTRYSPSFQGQVTISADKSISTAYLQWSSLKASDTAMYYCARHTQNKNGMNTFDIWGQGTMVTVSSGTGGSGGTGSGTGGSTQSALTQPPSASGSPGQSVTISCTGTSSDIGGYNYVSWYQQHPGKAPKLMIYEVSNRPPGVSNRFSGSKSGNTASLTISGLQAEDEADYYCSSYSTTTTRVIFGGGTKLTVL | no binding | 0.055
18 | SC05-166 (scFv, Vl 150-259); also called single-chain phage antibody SC05-166) scFv: QVQLVQSGAEVKKPGASVKVSCKASGYTFTSYAISWVRQAPGQGLEWMGWISAYNGNTNYARKLQGRVTMTTDTSTSTAYMELRSLRSDDTAVYYCARAGLMFTAWFGELWDHGTKDNWFDPWGQGTLVTVSSGTGGSGGTGSGTGGSTNFMLTQPHSVSESPGKTVTISCTRSSGSIASYYVQWYQQRPGSSPTTVIYEDNQRPSGVPDRFSGSIDSSSNSASLTISGLKTEDEADYYCQSYDSSNQVFGGGTKLTVL |  | 0.104
